Laboratory results published in the RNAGym collection of RNA variant scans (doi:10.1073/pnas.2313332121).
Fewer inactive variants are shown than the library holds.

B1: TPR 5TU (parent)
chain: GGAUCUUCUCGAUCUAACAAAAAAGACAAAUCUGCCACAAAGCUUGAGAGCAUCUUCGGAUGCAGAGGCGGCAGCCUUCGGUGGCGCGAUAGCGCCAACGUUCUCAACUAUGACACGCAAAACGCGUGCUCCGUUGAAUGGAGUUUAUCAUG

Variants of: B1
Assay: polymerase ribozyme fitness, log enrichment relative to wild type (log ratio); higher = more active; in vitro selection for triplet polymerase activity
How it was run: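 The heterodimeric triplet polymerase ribozyme's subunits were each mutagenized into PCR-built libraries and transcribed. Every library was selected once, in triplicate, by annealing with a biotinylated primer, the partner subunit and triplets, incubating frozen at −7 °C, gel-excising extended constructs, capturing on streptavidin beads and running RT-PCR. Input and output libraries were Illumina-sequenced, with genotypes kept only at ≥10 input reads and ≥1 read per output. Fitness, from inverse-variance-weighted replicate averages, is the base-2 logarithm of genotype enrichment over wild-type enrichment.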

| Variant | polymerase ribozyme fitness (log ratio) |
| --- | --- |
| A17C U55A U56A C85G A115G | -3.1 |
| A17G G34A U56A G59A U78G | ≤ -4.2 |
| A17G A49C G59U G92A A113G A119U | -4.03 |
| A17U C87U C125U | -1.39 |
| A17G A29C A107U U135G | ≤ -4.2 |
| A17C A26U A49C | ≤ -4.2 |
| A16U U53A C75A C93A C103G U130A | ≤ -4.2 |
| A17C A24G A39U U56A C103G G136U | ≤ -4.2 |
| A17G C72U A147C | -0.924 |
| A17G A47C C87A G88C A91U U111A | ≤ -4.2 |
| A17G A22C U61A G84U C96U U109A U111A G141A | ≤ -4.2 |
| A17C A26C C87U | -1.83 |
| A17U C93A G94U A121U A150G | ≤ -4.2 |
| A17U C32A A37U A41U | ≤ -4.2 |
| A17U C76U C96U | 0.123 |
| A17G A20C A24C U44C A66U C103U U134G | ≤ -4.2 |
| A17U G42U C99A C105U A120U | ≤ -4.2 |
| A17C A28U G46U A98U A107G A113G G133U | ≤ -4.2 |
| A17G U33G C79G G84A U134G | ≤ -4.2 |
| A17G G50C A137G U144G | ≤ -4.2 |
| A17U C36G U61A C76G C103U A119U G141C | ≤ -4.2 |
| A17G A23C A97U C114U | ≤ -4.2 |
| A17G G58A | 1.26 |
| A17G G48C G94A C95U | -3.29 |

| Variant | polymerase ribozyme fitness (log ratio) |
| --- | --- |
| A17U A21U C43U G71A C75U C93A C114U A120U U151G | ≤ -4.2 |
| A17G A113C | -2.83 |
| A17C A37C A52U G83U | -3.08 |
| A17U G42A A91C A122U G136C | ≤ -4.2 |
| A17G C38A U45A C69A C85U A142C C149U U151G | ≤ -4.2 |
| A17G C93G C95U | ≤ -4.2 |
| A17U C32G C57A U139A | ≤ -4.2 |
| A16U G86A A91U A106G C108U C129A | ≤ -4.2 |
| A17U C57G C69A | -2.58 |
| A17C C32G C54A C76G G80A C93A C96A U111A | ≤ -4.2 |
| A17C C95A C103G C108G | ≤ -4.2 |
| A17U A37G U82A U144A | -2.56 |
| A17G G133U | -3.47 |
| A17U A39C A60C G86C C87A | ≤ -4.2 |
| A17G G59A C85U G92C C103A A122U | ≤ -4.2 |
| A16U G68A C87A G94C G141A | ≤ -4.2 |
| A17G G86A | -0.889 |
| A17C G133A | -3.15 |
| A17C C18G G58A C69G C85U | -2.39 |
| A17G C96A A97G U101C U148C | -3.67 |
| A17C A47C G94C | -0.464 |
| A17G G84C | -1.85 |
| A17U A19G A30G C38G U45A G88U | ≤ -4.2 |
| A17C A89U | 0.471 |

| Variant | polymerase ribozyme fitness (log ratio) |
| --- | --- |
| A17G G84A C93A A98G C129G | ≤ -4.2 |
| A17G C35A G67C C96U C114U C116U | ≤ -4.2 |
| A17U C87A A98G C132U G136A | ≤ -4.2 |
| A17C A47C C95U C116U | -0.195 |
| A17G C99U | -0.271 |
| A17C A110U | -4 |
| A16U U31C C38U C114U | -3.95 |
| A17G C35U U53A G94A | -1.28 |
| A17G G100U | -4.01 |
| A17C A91U | ≤ -4.2 |
| A17G C85A C129A | -2.88 |
| A17U A19C C38A G42C U56A U78G A113U C132G A142G U148A | ≤ -4.2 |
| A17C C38A A47G G92C | -0.622 |
| A16U U44A G71C C96G A106U U127C G133U G141C U148C | ≤ -4.2 |
| A17U A52C A64C G133A A138C | ≤ -4.2 |
| A17C A40G G50C C57U C108U G133C | ≤ -4.2 |
| A17U A22U C51U U55A C75A C85U U101A C114U A115G G124A | ≤ -4.2 |
| A17C U33C G42C C51A U53A U139G A142G | ≤ -4.2 |
| A17U A60U | -0.153 |
| A17C A21U G25U G84A | -2.95 |
| A17C G50A G84U G143C U144G | ≤ -4.2 |
| A16U U31A A64U C85U A91G C131A | ≤ -4.2 |
| A17U G58A C76U C87A A120G G133U | ≤ -4.2 |
| A17G C43A C54U C93G | ≤ -4.2 |

| Variant | polymerase ribozyme fitness (log ratio) |
| --- | --- |
| A17U G67C A91C C95U G100U A106U | ≤ -4.2 |
| A17U A28C C87A | ≤ -4.2 |
| A17G G84U G126A | -1.39 |
| A16U U55A A91G G117U | ≤ -4.2 |
| A17U A19U C93G U111G | ≤ -4.2 |
| A17U A26U U45A A64G C85G A138G G143U | ≤ -4.2 |
| A17G U53C A73G U139A A142U U146G | ≤ -4.2 |
| A16U G124U | -2.37 |
| A17G C27A | ≤ -4.2 |
| A17G C51G U55A C57U G92U C103A C108A | ≤ -4.2 |
| A17G G59A G143C | -1.26 |
| A17G A20U C57G G84U C93A C96G A119U G141A | ≤ -4.2 |
| A17U A22C A23G G25A G50C U55A C75A G80A C87U U90C C103A | ≤ -4.2 |
| A17U C35A A47U A66C A73U G86A A91C U109G | ≤ -4.2 |
| A17C A19U | 0.475 |
| A17G A23G G48C A91U U104A | ≤ -4.2 |
| A16U U31A C38G A41C G62C A120U A142G A147U | ≤ -4.2 |
| A17C G62U C93G | -3.31 |
| A17U A73U C93U A120G | -1.86 |
| A17G G143U | -2.24 |
| A17C A29C A66U G67A A91G C96U A115G C116A | ≤ -4.2 |
| A17U C38A U53A G81C C95U U104G | -4 |
| A17C C38A U55G G86U C116G A122G | -2.93 |
| A17C A40U U53A C76G C93U U146G | ≤ -4.2 |

| Variant | polymerase ribozyme fitness (log ratio) |
| --- | --- |
| A17U A110U | ≤ -4.2 |
| A16U U55G C85G C103U A121U | -4.13 |
| A17C G133A U144A A147C | -3.99 |
| A17G C35U G83A | -0.796 |
| A17U C18U A20G C93U A115G | -4.19 |
| A16U G83C C99A | -3.97 |
| A17G C85U A115U C125A U144G A150C | ≤ -4.2 |
| A17G G58C C72U G152A | -2.87 |
| A17G G62U G68U C96A C105G U134G | ≤ -4.2 |
| A17C A41U U56A C99U A121G A147G | -3.04 |
| A17U C18G A41G A89C G126A C132U | -3.84 |
| A17U A41C G94C | -1.13 |
| A17G C93U | -0.578 |
| A17G C93A | -2.46 |
| A17G C93G | -2.89 |
| A17C A20C C108G | ≤ -4.2 |
| A17G G50A U55G A89U C93A | ≤ -4.2 |
| A17U A22U A26G G34U C57U G59A C93U | ≤ -4.2 |
| A17C G48C C93G | -3.01 |
| A17G A49C C87G C123G G141A | ≤ -4.2 |
| A17G C57U C96U U127C C131A G133U U146C | ≤ -4.2 |
| A17C G68C C85G C125U G143C | ≤ -4.2 |
| A17G A23U U55G A66C | ≤ -4.2 |
| A17G A37C A91G C99A A107G U139G G143U U148C | ≤ -4.2 |

| Variant | polymerase ribozyme fitness (log ratio) |
| --- | --- |
| A17U A30U G42A C95A A138G | ≤ -4.2 |
| A17G A28U G71A A121G | ≤ -4.2 |
| A17C A26G A41C C54A C72U C87A G100C G143U | ≤ -4.2 |
| A16U G74A G84U U90C C118U A121U | ≤ -4.2 |
| A17C G25A G62U G117U | -2.71 |
| A17U C54A | -1.45 |
| A16U G70C G81U A89G | ≤ -4.2 |
| A17G A21U C51U U53A C79U G94A A115G | ≤ -4.2 |
| A17G G50U | 0.372 |
| A17G G50C | -2.81 |
| A17C U31C G50C C51A | -0.997 |
| A17U A20C C85U U102G C116G | -3.83 |
| A17U A20U A37U G48U C96A U101C | ≤ -4.2 |
| A17G C96A A119U | -0.596 |
| A17G G86U A97U | -2.08 |
| A17G C63A C118G A142U | -2.32 |
| A17G C35A A40C G67U C96A C129G | ≤ -4.2 |
| A17U G42A G81C G86U G92C G143C | ≤ -4.2 |
| A17C A39U G58A C95A G141C | -2.82 |
| A17G G48A | -1.03 |
| A17U A19G C36U G42C G50A A73U A147C | ≤ -4.2 |
| A17G G25C G50A G86A C93G | ≤ -4.2 |
| A17U G50U C63U C93U C103U G126A C132U | -3.74 |
| A17U C79U C85U A97U | ≤ -4.2 |

| Variant | polymerase ribozyme fitness (log ratio) |
| --- | --- |
| A17G G92A A120G A122G C125A | ≤ -4.2 |
| A17U A21G A22C C38U A66U U82C G100A C125U | ≤ -4.2 |
| A17G C32A C51A U55A A60C G74A G81A U90G C95A | ≤ -4.2 |
| A17C C18A C57A C95U C99G A113G G133A G152U | -4.06 |
| A17U A49U C85A A97U | ≤ -4.2 |
| A16U U56A C96A | -3.23 |
| A17U A19C G42U U56C C76A G88A | ≤ -4.2 |
| A17G A39C A40C A73G G94C U134G | ≤ -4.2 |
| A17U A26C C76A G86A C96A C105G A115G | ≤ -4.2 |
| A17C G88A A91G U148A | -4.03 |
| A17G A21G A29G G81A C93G G112U C118A U135A | ≤ -4.2 |
| A17C U82A C85A C93U | ≤ -4.2 |
| A17U C129G | -2.62 |
| A17C C36U A47G C54A C85A C118A U127G U134C U151A | ≤ -4.2 |
| A17U A29C C43G G86A U135C | -4.06 |
| A17U G58C C95U C99A | -1.96 |
| A17C A28U U44C A52U G94U A97G A142G | ≤ -4.2 |
| A17U A29C A66C C95A C132G | ≤ -4.2 |
| A17C C57A C114U | -1.86 |
| A17G G70A C75G C96U C99G | -4.15 |
| A17U G59C G86C A113U | ≤ -4.2 |
| A17C A23U U104C | ≤ -4.2 |
| A17G C27G A66G A107G A115C | ≤ -4.2 |
